Substrate: NC(=O)c1cccnc1
Experiment: purified protein, by the assay type
Details: other: substrate of Nampt, 37° C., pH 7.5

B1: purified recombinant mouse Nampt (Mus musculus) (protein)
chain: MNAAAEAEFNILLATDSYKVTHYKQYPPNTSKVYSYFECREKKTENSKVRKVKYEETVFYGLQYILNKYLKGKVVTKEKIQEAKEVYREHFQDDVFNERGWNYILEKYDGHLPIEVKAVPEGSVIPRGNVLFTVENTDPECYWLTNWIETILVQSWYPITVATNSREQKKILAKYLLETSGNLDGLEYKLHDFGYRGVSSQETAGIGASAHLVNFKGTDTVAGIALIKKYYGTKDPVPGYSVPAAEHSTITAWGKDHEKDAFEHIVTQFSSVPVSVVSDSYDIYNACEKIWGEDLRHLIVSRSTEAPLIIRPDSGNPLDTVLKVLDILGKKFPVTENSKGYKLLPPYLRVIQGDGVDINTLQEIVEGMKQKKWSIENVSFGSGGALLQKLTRDLLNCSFKCSYVVTNGLGVNVFKDPVADPNKRSKKGRLSLHRTPAGNFVTLEEGKGDLEEYGHDLLHTVFKNGKVTKSYSFDEVRKNAQLNIEQDVAPH
  Km: 0.92 µM

— US8268575B2, “NAD biosynthesis systems” (Washington University, priority 2004, dated 2012)
